Earlier results as cited in US20240293553A1, “P-SELECTIN INHIBITORS AND USES THEREOF” (Beth Israel Deaconess Medical Center, Inc., priority 2021, published 2024).
Values joined by “and” are separate entries in the source; they are usually repeats but may differ in a detail not shown here. Identical values can stand only once.

T1: P-selectin (Homo sapiens, UniProt P16109)
T1 sequence (P16109 42-830): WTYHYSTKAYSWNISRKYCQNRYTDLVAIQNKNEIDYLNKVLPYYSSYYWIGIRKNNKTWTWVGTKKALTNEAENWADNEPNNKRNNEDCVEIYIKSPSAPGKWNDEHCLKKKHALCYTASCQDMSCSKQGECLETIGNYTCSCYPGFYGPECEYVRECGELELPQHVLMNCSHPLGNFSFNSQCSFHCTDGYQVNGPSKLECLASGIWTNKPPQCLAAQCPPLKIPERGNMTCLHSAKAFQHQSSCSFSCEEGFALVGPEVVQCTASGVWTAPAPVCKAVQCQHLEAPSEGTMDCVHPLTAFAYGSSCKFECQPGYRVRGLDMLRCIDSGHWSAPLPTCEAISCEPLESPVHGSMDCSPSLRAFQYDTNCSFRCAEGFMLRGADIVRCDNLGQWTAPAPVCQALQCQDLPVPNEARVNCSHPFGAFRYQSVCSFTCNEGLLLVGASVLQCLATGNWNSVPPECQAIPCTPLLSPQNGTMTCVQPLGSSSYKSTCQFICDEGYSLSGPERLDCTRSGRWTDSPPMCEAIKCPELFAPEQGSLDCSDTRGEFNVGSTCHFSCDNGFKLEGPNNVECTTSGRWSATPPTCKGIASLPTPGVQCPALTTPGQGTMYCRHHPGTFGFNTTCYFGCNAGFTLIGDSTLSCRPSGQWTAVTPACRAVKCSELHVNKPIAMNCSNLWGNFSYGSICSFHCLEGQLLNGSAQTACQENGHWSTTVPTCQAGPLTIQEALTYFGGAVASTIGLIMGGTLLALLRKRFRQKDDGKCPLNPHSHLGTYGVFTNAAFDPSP

B1: PSGL-1: P-selectin glycoprotein ligand-1, glycoprotein expressed on the surface of all leukocytes; native ligand of P-selectin (protein, UniProt Q14242 42-412, looked up)
P-selectin glycoprotein …: QATEYEYLDYDFLPETEPPEMLRNSTDTTPLTGPGTPESTTVEPAARRSTGLDAGGAVTELTTELANMGNLSTDSAAMEIQTTQPAATEAQTTQPVPTEAQTTPLAATEAQTTRLTATEAQTTPLAATEAQTTPPAATEAQTTQPTGLEAQTTAPAAMEAQTTAPAAMEAQTTPPAAMEAQTTQTTAMEAQTTAPEATEAQTTQPTATEAQTTPLAAMEALSTEPSATEALSMEPTTKRGLFIPFSVSSVTHKGIPMAASNLSVNYPVGAPDHISVKQCLLAILILALVATIFFVCTVVLAVRLSRKGHMYPVRNYSPTEMVCISSLLPDGGEGPSATANGGLSKAKSPGLTPEPREDREGDDLTLHSFLP
B2: crizanlizumab: anti-P-selectin mAb approved for the treatment of sickle cell disease (antibody, chains of the INN, looked up, V domains shown)
VH: QVQLVQSGAEVKKPGASVKVSCKVSGYTFTSYDINWVRQAPGKGLEWMGWIYPGDGSIKYNEKFKGRVTMTVDKSTDTAYMELSSLRSEDTAVYYCARRGEYGNYEGAMDYWGQGTLVTVSS
VL: DIQMTQSPSSLSASVGDRVTITCKASQSVDYDGHSYMNWYQQKPGKAPKLLIYAASNLESGVPSRFSGSGSGTDFTLTISSLQPEDFATYYCQQSDENPLTFGGGTKVEIK

Legend:
P-selectin = biological target: T1, P-selectin; settings: reported values
[1] = literature values

Molecule | Kd (P-selectin) | t1/2 [1] [days]
B1 | 73 nM and 70 to 300 nM | –
B2 | – | 10.6
